Laboratory results as given in patent publication US20210155689A1 (SHANGHAI PHARMAEXPLORER, published 2021).
Residue numbers refer to the chain shown, from its start.

T1: human LAG-3 (full length, on the cell surface) (human, UniProt P18627 23-525)
T1 construct: Full-length human LAG-3 expressed on cells; also called HEK293-hLAG-3; HEK293 cells transfected with LAG-3 gene
T1 sequence: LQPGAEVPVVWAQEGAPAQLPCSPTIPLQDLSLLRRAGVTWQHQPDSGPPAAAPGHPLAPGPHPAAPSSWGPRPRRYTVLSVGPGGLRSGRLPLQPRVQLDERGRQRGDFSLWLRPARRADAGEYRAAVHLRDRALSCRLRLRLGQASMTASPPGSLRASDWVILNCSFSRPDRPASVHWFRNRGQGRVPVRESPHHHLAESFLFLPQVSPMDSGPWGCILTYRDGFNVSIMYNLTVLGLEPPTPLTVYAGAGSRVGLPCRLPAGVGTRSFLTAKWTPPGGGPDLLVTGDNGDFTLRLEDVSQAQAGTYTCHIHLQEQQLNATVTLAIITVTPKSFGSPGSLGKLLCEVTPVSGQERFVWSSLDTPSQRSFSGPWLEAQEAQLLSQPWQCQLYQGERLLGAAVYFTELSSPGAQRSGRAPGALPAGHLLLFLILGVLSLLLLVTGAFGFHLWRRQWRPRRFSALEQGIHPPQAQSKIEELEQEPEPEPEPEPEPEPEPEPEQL

T2: human LAG-3 on cells (HEK293-hLAG-3 stable cell line) (human, UniProt P18627 23-525)
T2 sequence: T1 sequence

T3: monkey LAG-3 (full length, on the cell surface) (monkey, UniProt P18627 24-525 (human entry))
T3 construct: also called HEK293-cLAG-3; monkey LAG-3 protein on the cell surface
T3 chain: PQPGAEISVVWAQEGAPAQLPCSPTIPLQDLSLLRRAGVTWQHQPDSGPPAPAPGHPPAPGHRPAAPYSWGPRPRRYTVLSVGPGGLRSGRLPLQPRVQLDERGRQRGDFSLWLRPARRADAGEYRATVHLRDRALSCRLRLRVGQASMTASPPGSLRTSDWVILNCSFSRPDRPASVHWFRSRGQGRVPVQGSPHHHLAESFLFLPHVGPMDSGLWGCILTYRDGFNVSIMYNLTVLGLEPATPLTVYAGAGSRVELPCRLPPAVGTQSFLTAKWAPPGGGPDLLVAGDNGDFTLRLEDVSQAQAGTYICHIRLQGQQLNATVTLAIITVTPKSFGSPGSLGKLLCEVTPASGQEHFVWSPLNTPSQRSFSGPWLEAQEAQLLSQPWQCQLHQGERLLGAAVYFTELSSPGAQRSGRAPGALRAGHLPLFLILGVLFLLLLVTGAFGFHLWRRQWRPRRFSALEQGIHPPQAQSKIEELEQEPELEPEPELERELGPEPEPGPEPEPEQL

B1: 556F6B8 (mouse antibody purified from hybridoma) (antibody, V domains shown)
VH: RVQLKQSGPGLVQPSQSLSITCTVSGFSLIKYGVHWVRQSPGEGLEWLGVIWRGGITDYNAAFMSRLSITKDNSKSQVFFKMNSLQADDTAIYYCAKWDGPLAMDYWGQGTSVTVSS
VL: DIVMTQSHKFLSTSVGDRVSITCKASQDVGTTVAWYQQKPGQSPKLLIYWASTRHTGVPDRFTGSGSGTDFTLTISNVQSEDLADYFCQQYSSYPYTFGGGTKLEIK
notes: also called mAb123-556F6B8
B2: 405B8H3 (mouse antibody purified from hybridoma) (antibody, V domains shown)
VH: QVQLQQSGAELVRPGASVTLSCKASGYTFTDYEMHWVKQTPVHGLEWIGATDPETGNSAYNQKFKGKAIMTADKSSSTAYMELRSLTSEDSAVYYCISTGWNDWGQGTSLTVSS
VL: DIKMTQSPSSMYASLGERVTITCKASQDINSYLSWFQQKPGKSPKTLIYRADRLLDGVPSRFSGSGSGQDYSLTISSLEYGDMGIYYCLQYDEFPYTFGGGTKLEIK
notes: also called mAb103-405B8H3; 405B81-13
B3: 105F1E10 (mouse antibody purified from hybridoma) (antibody, V domains shown)
VH: EVQLQQSGPELVKPGASVKMSCRASGYTFTDFKMHWMKQSHGKSLEWIGYIAPNNGGTAYNQKFRGKATLTVNESSNTAYMELRSLTSEDSAVYYCVDWDDVDYWGQGTTLTVSS
VL: B2 VL with P40S, D52N, L55V, G81E, D92V, Y96L, G100A, I106L
notes: also called mAb009-105F1E10
B4: 409B11E12 (mouse antibody purified from hybridoma) (antibody, V domains shown)
VH: B2 VH with P41T, G56S, N57Y, M70L, S98A
VL: B2 VL with I2L, D52N, G81E
notes: also called mAb104-409B11E12
B5: 409D4E10 (mouse antibody purified from hybridoma) (antibody, V domains shown)
VH: B2 VH with Y27N, G56D, S58T, M70L, A72T, S98T, T99S
VL: B2 VL with D52N, G81E, D92N
notes: also called mAb112-409D4E10
B6: 556F6B8 mouse-human chimeric antibody (antibody, V domains shown)
VH: B1 VH
VL: B1 VL
notes: also called mAb123-556F6B8; 556F8B8
B7: 405B8H3 mouse-human chimeric antibody (antibody, V domains shown)
VH: B2 VH
VL: B2 VL
notes: also called mAb103-405B8H3
B8: 105F1E10 mouse-human chimeric antibody (antibody, V domains shown)
VH: B3 VH
VL: B2 VL with P40S, D52N, L55V, G81E, D92V, Y96L, G100A, I106L
notes: also called mAb009-105F1E10
B9: 409B11E12 mouse-human chimeric antibody (antibody, V domains shown)
VH: B2 VH with P41T, G56S, N57Y, M70L, S98A
VL: B2 VL with I2L, D52N, G81E
notes: also called mAb104-409B11E12
B10: 409D4E10 mouse-human chimeric antibody (antibody, V domains shown)
VH: B2 VH with Y27N, G56D, S58T, M70L, A72T, S98T, T99S
VL: B2 VL with D52N, G81E, D92N
notes: also called mAb112-409D4E10

biological target: T1, human LAG-3 (full length, on the cell …); test: FACS, HEK293-hLAG-3; 8.000 nM
Text: (§1) The pIRES plasmid with the monkey-derived full-length gene was transfected into the HEK293 cell line to construct a HEK293 stable cell line containing monkey LAG-3 (herein referred to as HEK293-cLAG-3 stable cell line). The HEK293-hLAG-3 stable cell line and HEK293-cLAG-3 stable cell line were expanded in a T-75 cell culture flask to a 90% confluence. The medium was aspirated, and the cells were washed with HBSS (Hanks' Balanced Salt Solution) 1-2 times, then treated with a enzyme-free cell dissociation fluid (Versene solution: Life technology) and the cells were collected. The cells were washed with HBSS buffer for 1-2 times. After counted, the cells were diluted with HBSS to 1-2×10⁶ cells per ml, added with 1% goat serum blocking solution, incubated on ice for 20-30 minutes, and then washed with HBSS for 2 times by centrifugation. The collected cells were suspended in the FACS buffer (HBSS+1% BSA) to 2×10⁶ cells/ml, added as 100 microliters per well to a 96-well FACS reaction plate, added with 100 microliters per well of the antibody sample to be tested, incubated on ice for 1-2 hours. The plate was washed twice with the FACS buffer by centrifugation, added with 100 microliters of fluorescent (Alexa 488)-labeled secondary antibodies per well, and incubated on ice for 0.5-1.0 hours. The plate was washed 2-3 times with FACS buffer by centrifugation, added with 100 μl fixative solution (4% Paraformaldehyde) per well to suspend the cells. 5-10 minutes later, it was washed 1-2 times with FACS buffer by centrifugation. The cells were suspended with 100 microliters of FACS buffer, FACS (FACSCalibur, BD) was used for detection and the results were analyzed.

Binder | Mean fluorescence intensity
B1 | 74.9 MFI
B2 | 252 MFI
B3 | 235 MFI
B4 | 112 MFI
B5 | 123 MFI

biological target: T2, human LAG-3 on cells (HEK293-hLAG-3 …); test: cell-based or functional assay

Binder | IL-2 production, antigen-specific T lymphocyte stimulation test, 0.016 ug/ml, N = 1 | IL-2 production, antigen-specific T lymphocyte stimulation test, 0.016 ug/ml, N = 2 | IL-2 production, antigen-specific T lymphocyte stimulation test, 0.08 ug/ml, N = 1 | IL-2 production, antigen-specific T lymphocyte stimulation test, 0.08 ug/ml, N = 2 | IL-2 production, antigen-specific T lymphocyte stimulation test, 0.4 ug/ml, N = 1 | IL-2 production, antigen-specific T lymphocyte stimulation test, 0.4 ug/ml, N = 2 | IL-2 production, antigen-specific T lymphocyte stimulation test, 2 ug/ml, N = 1 | IL-2 production, antigen-specific T lymphocyte stimulation test, 2 ug/ml, N = 2 | IL-2 production, antigen-specific T lymphocyte stimulation test, 10 ug/ml, N = 1 | IL-2 production, antigen-specific T lymphocyte stimulation test, 10 ug/ml, N = 2
B6 | 348 pg/mL | 353 pg/mL | 499 pg/mL | 491 pg/mL | 794 pg/mL | 599 pg/mL | 818 pg/mL | 866 pg/mL | 584 pg/mL | 722 pg/mL
B7 | 366 pg/mL | 420 pg/mL | 666 pg/mL | 559 pg/mL | 883 pg/mL | 986 pg/mL | 876 pg/mL | 825 pg/mL | 770 pg/mL | 789 pg/mL
B8 | 452 pg/mL | 420 pg/mL | 437 pg/mL | 467 pg/mL | 779 pg/mL | 757 pg/mL | 853 pg/mL | 792 pg/mL | 850 pg/mL | 627 pg/mL
B9 | 402 pg/mL | 433 pg/mL | 525 pg/mL | 555 pg/mL | 835 pg/mL | 954 pg/mL | 914 pg/mL | 915 pg/mL | 671 pg/mL | 795 pg/mL
B10 | 384 pg/mL | 334 pg/mL | 498 pg/mL | 534 pg/mL | 804 pg/mL | 678 pg/mL | 825 pg/mL | 673 pg/mL | 890 pg/mL | 801 pg/mL

Biological target: T3, monkey LAG-3 (full length, on the cell …)
Test: FACS, HEK293-cLAG-3; 40.000 nM
Text: as §1

Binder | Mean fluorescence intensity
B1 | 51 MFI
B2 | 108 MFI
B3 | 87 MFI
B4 | 102 MFI
B5 | 130 MFI
